Measured values: the supplement of paper PMC10126150
± gives the standard deviation of the averaged measurements.

System: ATP
Test: switch fluorescence ratio, 500 uM ATP over buffer (Cy3 cluster intensity, sum of 5 cycles each) (fold (ratio)); higher = stronger signal-on switching upon ATP binding; sequences stand for … in TCGTCGGCAGCGTCAGATGTGTATAAGAGACAGTTTTTTTTTTTTTTTTTTTTTTTTT…TC
Conditions: aptamer strand: ATP DNA aptamer (quencher-CACCTGGGGGAGTATTGCGGAGGAAGG + anchor), 100 nM annealed; ATP concentration: 500 uM
Outline: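 Between each of five buffer/ATP cycles, the flow-cell was stripped with NaOH and re-annealed. Each cycle imaged Cy3-labelled switching-strand clusters, annealed to 100 nM quencher-labelled ATP aptamer on a modified Illumina MiSeq flow-cell, first in selection buffer and then after 15 min with 500 uM ATP at 22 °C. The fluorescence ratio is summed target-cycle over summed buffer-cycle Cy3 intensity per cluster, averaged per switch-domain sequence, with clusters outside 100-1000 RFU excluded.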
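Also: ATP exposure 15 min at 22 °C before imaging.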

| Sequence | switch fluorescence ratio |
| --- | --- |
| TCTTGCTTC | 1.0084 ± 0.00091 |
| GGAATACTTT | 1.01 ± 0.028 |
| TAAAAATGAG | 1.014 ± 0.0069 |
| AATCATTGTA | 1.01 ± 0.039 |
| TAAGAGTGCA | 0.973 ± 0.027 |
| CATTGGGGGA | 0.983 ± 0.014 |
| CTAATAGGAG | 1.004 ± 0.0025 |
| AGAGAGCTTT | 1.01 ± 0.021 |
| GAGCTTCTTG | 1.017 ± 0.0063 |
| GTTCGAACGG | 0.9963 ± 0.006 |
| GGGGGGTGCA | 1.02 ± 0.018 |
| TAAGGCTGC | 1.04 ± 0.076 |
| TAAGGTCGAT | 1.01 ± 0.022 |
| GTGCTTAGGA | 0.957 ± 0.029 |
| GACTTATCCT | 1.054 ± 0.004 |
| GAGGTAGATG | 0.991 ± 0.0012 |
| TGGAATAATT | 1.003 ± 0.0081 |
| GGTAGACGGT | 1.02 ± 0.049 |
| TTTCCGAATG | 1.13 ± 0.026 |
| AGTGAGATGA | 1 ± 0.04 |
| CGGTACGGGT | 0.992 ± 0.025 |
| ACATGGTAGT | 0.97 ± 0.041 |
| TTTAGGCGGC | 1.03 ± 0.023 |
| ATTTTCCAGT | 1.01 ± 0.011 |
| GTGGTAGCCG | 1.0015 ± 0.00029 |

| Sequence | switch fluorescence ratio |
| --- | --- |
| TTGGGGAACC | 0.9866 ± 0.009 |
| AAAAAATATT | 1.029 ± 0.0043 |
| TGTGGCGATT | 1.02 ± 0.016 |
| CTCCGGTTTG | 2.03 ± 1.4 |
| TCTGGATAGG | 0.9625 ± 0.0058 |
| TGCATGTCTT | 0.998 ± 0.033 |
| TTTCACATGG | 1.052 ± 0.0044 |
| TTGGTGTAAG | 1.0001 ± 0.00079 |
| ATTGTCTTCG | 0.987 ± 0.041 |
| TTTAGTTTGC | 0.992 ± 0.024 |
| GAGGCTATGG | 1.01 ± 0.022 |
| ACATCTCGAT | 0.996 ± 0.015 |
| ATGCTTATTG | 0.973 ± 0.015 |
| GGAATTGGGT | 0.99 ± 0.044 |
| TCCGGGTCTG | 1.03 ± 0.072 |
| CGTGTAAGGC | 0.993 ± 0.025 |
| CCAGAAAGTG | 1.26 ± 0.38 |
| TATTTAGGGG | 0.973 ± 0.022 |
| GTTGCAGCCT | 0.981 ± 0.018 |
| GGCGGTGGGT | 0.999 ± 0.038 |
| GAGTACAAAG | 1.02 ± 0.0041 |
| CATCTTGAAA | 1.028 ± 0.0097 |
| TCGGAGCCAC | 3.16 ± 3 |
| TCGCGCGGAG | 1.04 ± 0.024 |
| ACGCGCGTCG | 1 ± 0.063 |

| Sequence | switch fluorescence ratio |
| --- | --- |
| TTATGAAGAC | 1.025 ± 0.01 |
| GTGGCTTAGG | 0.9796 ± 0.0035 |
| GATTTTGGTC | 0.967 ± 0.054 |
| TTGGGCATCT | 1.003 ± 0.0031 |
| TGTGTATGAG | 0.986 ± 0.036 |
| TTGCAGATTT | 0.985 ± 0.028 |
| GTCAAATGGT | 0.972 ± 0.021 |
| GAGTGGGTCG | 0.983 ± 0.024 |
| GATCAGTGTT | 0.9783 ± 0.0093 |
| TTTTATACTT | 1 ± 0.011 |
| AAAATGCTTT | 1.01 ± 0.0014 |
| GATATGTGTT | 1.001 ± 0.0024 |
| CCATAAGGGA | 1.028 ± 0.0055 |
| GCTTTGTTTT | 1.12 ± 0.3 |
| GTAATTTTTT | 1.02 ± 0.031 |
| TAAAAGGGTT | 1 ± 0.031 |
| TTTGGATGGA | 1.02 ± 0.023 |
| GGTCTTAGTT | 0.987 ± 0.035 |
| GGGCAACGGG | 1.2 ± 0.12 |
| AGGGCAAGTT | 1.01 ± 0.064 |
| AAGGGTTTGA | 1.032 ± 0.0096 |
| TTTGGTTCAG | 0.994 ± 0.018 |
| TTCCTGATGC | 1.04 ± 0.092 |
| TGGGGGGTGA | 0.997 ± 0.049 |
| ATTCATTGC | 1.038 ± 0.0048 |

| Sequence | switch fluorescence ratio |
| --- | --- |
| TAGGATTGTG | 0.9991 ± 0.0081 |
| GACTGTTAGG | 1.03 ± 0.016 |
| ACTGATTGGC | 1.18 ± 0.18 |
| AGTCGTTCTG | 0.99 ± 0.01 |
| AGTGTAGTCT | 0.961 ± 0.02 |
| AGTAGCCTGA | 1.01 ± 0.013 |
| CTAATGTGCG | 1.15 ± 0.28 |
| CTTAGCTAGT | 1.09 ± 0.13 |
| CATTGTTATC | 1.08 ± 0.085 |
| CTAGCTTACT | 1.36 ± 0.065 |
| TTCAGTGTTA | 1.017 ± 0.0058 |
| CGGTGGATTC | 1.0049 ± 0.00055 |
| TTATATTTTT | 1.02 ± 0.023 |
| CGGAGGGAGG | 0.928 ± 0.091 |
| TTATTTGGCC | 0.997 ± 0.032 |
| CATTTTAGGC | 1.04 ± 0.067 |
| AGGCGATAAT | 1.12 ± 0.13 |
| TGGTTTTTT | 0.998 ± 0.03 |
| CTTCTCTTCA | 1.02 ± 0.03 |
| AGAATCAGGT | 0.9701 ± 0.0014 |
| GAGCGCGAGG | 0.99 ± 0.037 |
| ACTCCTCGAC | 2.71 ± 0.41 |
| GGCGGCGTCT | 0.998 ± 0.036 |
| GAACGTTTGG | 1.04 ± 0.074 |
| TGGGGGGCAG | 0.969 ± 0.017 |

| Sequence | switch fluorescence ratio |
| --- | --- |
| GACGTTCATA | 1.083 ± 0.0089 |
| AAAGGGAACC | 1.017 ± 0.0037 |
| CTAACTGAG | 1.03 ± 0.017 |
| GGAATGTTTG | 0.977 ± 0.035 |
| TTGGGCGAAT | 0.988 ± 0.021 |
| AGTGAGTGTA | 0.979 ± 0.015 |
| TGGTGGAGTC | 1.02 ± 0.046 |
| AGTGGGGTAC | 1.03 ± 0.032 |
| CCATGGGTGC | 1.34 ± 0.024 |
| CTTGACGGTC | 1.11 ± 0.1 |
| ACGGGGAAGG | 1.03 ± 0.035 |
| GGTAAAAGAT | 0.977 ± 0.015 |
| TTAATGTATT | 0.995 ± 0.016 |
| CCTCGTAGGT | 1.07 ± 0.024 |
| TAAATTAGGG | 0.992 ± 0.033 |
| TATTTTAAAA | 0.986 ± 0.022 |
| GTTATAGTAT | 0.963 ± 0.054 |
| CAACACGGTG | 1.08 ± 0.038 |
| TTTGAGGTGT | 1.03 ± 0.012 |
| GGGTTTGCTG | 1.01 ± 0.076 |
| AGAATGAGGG | 0.991 ± 0.041 |
| TCGGCATGAT | 0.998 ± 0.011 |
| GAAGGCCTTG | 1.01 ± 0.025 |
| CGCTGGTGGG | 1.01 ± 0.029 |
| GGTCGCACCA | 1.02 ± 0.033 |

| Sequence | switch fluorescence ratio |
| --- | --- |
| GGCTGCCAGT | 0.9909 ± 0.0016 |
| TTTTCCATTG | 1.01 ± 0.021 |
| CAGTAGGGAG | 0.987 ± 0.022 |
| TATAAGGATC | 0.982 ± 0.057 |
| GGGGGGGAG | 1.02 ± 0.021 |
| ATTACGGGAT | 1.01 ± 0.062 |
| TGTGGCGTTT | 1.04 ± 0.059 |
| TTTTTCTGGG | 0.977 ± 0.0099 |
| TTATGAAGGA | 1.02 ± 0.021 |
| TTTTGGAGGA | 1.02 ± 0.019 |
| TAAAGGGTGG | 0.987 ± 0.032 |
| TTGGGCCACG | 0.983 ± 0.011 |
| TTGGTAGGTG | 1.04 ± 0.058 |
| CGTCTTATTA | 0.9826 ± 0.0028 |
| GGGAGCTAGG | 0.9709 ± 0.0038 |
| ATTAAGGGCA | 0.97 ± 0.011 |
| AAAGGAGTTT | 1.01 ± 0.072 |
| GGTATGGGGT | 1.03 ± 0.058 |
| TCTGAACAGG | 1.03 ± 0.014 |
| TGTTTTCCCC | 1.02 ± 0.028 |
| ATTGACGAGG | 1.001 ± 0.0026 |
| TAACGTGTTT | 1 ± 0.017 |
| AACTCCTAAG | 1.03 ± 0.021 |
| AAGAAGTTGC | 0.9861 ± 0.0034 |
| CTTTGATTAG | 0.9838 ± 0.0061 |

| Sequence | switch fluorescence ratio |
| --- | --- |
| TATCTTAGGC | 1.01 ± 0.027 |
| CCGGGGGCGA | 2.64 ± 1.4 |
| GCATAGTGGT | 1.008 ± 0.01 |
| TCGGAACTTG | 1.01 ± 0.07 |
| AGTGAGTCGG | 0.979 ± 0.018 |
| CGATTGGGGC | 0.992 ± 0.013 |
| GGGGTCTGGG | 0.966 ± 0.016 |
| CTGAGGGGCG | 1.04 ± 0.057 |
| AGGGCGGTCA | 0.996 ± 0.025 |
| TGGGAGGCCT | 1.02 ± 0.021 |
| CGGTTAACGG | 1 ± 0.025 |
| GAGTAGTTGT | 0.9969 ± 0.0083 |
| CCTACTTGGC | 1.16 ± 0.05 |
| AGAAGGGGAT | 1.01 ± 0.021 |
| TTTTCGTGGC | 0.989 ± 0.1 |
| GTTGTGATTT | 0.953 ± 0.032 |
| ACTTATGTTG | 0.995 ± 0.024 |
| GCTGTGCGGG | 0.95 ± 0.018 |
| GTTAGGTACG | 1 ± 0.07 |
| TAGCTGTTCG | 0.9887 ± 0.004 |
| GTGGGGAGTT | 0.99 ± 0.023 |
| GATTAGGTGA | 1.06 ± 0.014 |
| TAATTTTGGT | 0.9847 ± 0.0068 |
| GTCATAGTTA | 0.983 ± 0.017 |
| CTGGAACAGT | 0.976 ± 0.015 |

| Sequence | switch fluorescence ratio |
| --- | --- |
| GAGCGACCTG | 0.989 ± 0.016 |
| CACGGGAACA | 1.082 ± 0.0053 |
| TTTAAAATTT | 1.01 ± 0.041 |
| TGTGATTGGC | 1.03 ± 0.041 |
| AGACGATTGG | 0.974 ± 0.076 |
| TTTCGTATGG | 1 ± 0.057 |
| TGTTCGGTCG | 1.005 ± 0.0014 |
| GGGCAGGTTT | 1.01 ± 0.014 |
| TTTTTTGACT | 0.995 ± 0.04 |
| AGGAGTTTGG | 0.981 ± 0.015 |
| GACCAGGTTA | 1.181 ± 0.0052 |
| TTGGAGGGAG | 0.999 ± 0.043 |
| ATGGAGGTCT | 1.01 ± 0.055 |
| ATCCTATTT | 1.01 ± 0.028 |
| GGGTAGTGAG | 0.999 ± 0.02 |
| GGTTATGGG | 0.993 ± 0.038 |
| GAGGATGATC | 1.01 ± 0.032 |
| GTGCTTTGCG | 0.9928 ± 0.0014 |
| ATTGGGAGAT | 1.024 ± 0.0064 |
| AAGTCCGATA | 0.9941 ± 0.0038 |
| ATTTGTTTTT | 0.978 ± 0.01 |
| ATTTTAACTT | 1.35 ± 0.44 |
| GGGAGAATTA | 1.037 ± 0.0022 |
| TGGTTGTTGG | 0.95 ± 0.02 |
| ATGCTTTCAG | 0.983 ± 0.012 |
